The values below come from patent publication US20060258586A1, “Compositions and uses of secreted polypeptide, Zsig98” (priority 2005, published 2006).

The test system of data set [1] is cisplatin- or syrup of ipecac-induced emesis. The conditions noted are these: 3 mg/kg i.p.; cited from earlier work.
Data set [2] deals with the molecule itself. Briefly: SDS PAGE of refolded synthetic peptide; self-association.
For a further data set, the system named is strips of ileum. Nature of the data set: guinea pig ileum organ bath contractility. The conditions noted are these: isolated ileum strips. As to the method:
In another model, male Hartley Guinea pigs at six weeks of age weighing approximately 0.5 kg are euthanized by carbon monoxide. Intestinal tissue is harvested as follows: 2-3 cm longitudinal sections of ileum 10 cm rostral of the cecum, and 2-3 cm longitudinal sections of duodenum, jejunum, and proximal and distal colon.
Tissue is washed in Krebs Ringer's Bicarbonate buffer containing 118.2 mM NaCl, 4.6 mM KCl, 1.2 mm MgS04, 24.8 mM NaHC03, 1.2 mM KH2P04, 2.5 mM CaCl2 and 10 mM glucose. […] Isometric contractions are measured with a force displacement transducer and recorded on a chart recorder using Po-ne-mah Physiology Platform Software. […]
Varying doses of Zsig98 from 1-400 ng/ml are tested for activity on strips of ileum. Muscle contractions are detected immediately after adding Zsig98 protein and are recorded at concentrations as low as 1 ng/ml or 100 picomolar. The EC 50 of this response is measured. […]
In another model, male Hartley Guinea pigs at six weeks of age weighing approximately 0.5 kg are euthanized by carbon monoxide. […] Isometric contractions are measured with a force displacement transducer and recorded on a chart recorder using Po-ne-mah Physiology Platform Software. […] Muscle contractions are detected immediately after adding Zsig98 protein and are recorded at concentrations as low as 1 ng/ml or 100 picomolar. The EC 50 of this response is measured. […]

Take `COc1ccccc1CN[C@H]1CCCN[C@H]1c1ccccc1` (relative stereo) [(.+−.) cis-3-(2-methoxybenzylamino)-2-phenyl piperidine]: the anti-emetic activity result in data set [1] was “exhibited anti-emetic activity”.

B1: Mature Zsig98, synthetic, made by native ligation and refolded (PEP05014 and PEP05015) (peptide)
chain: EPAGSAVPAQSRPCVDCHAFEFMQRALQDLRKTACSLDARTETLLLQAERRALCACWPAGH
notes: also called zsig98 peptide; synthetic zsig98
Take B1: the binding result in data set [2] is on record as “binds”.

B2: Zsig98: secreted polypeptide; mature form amino acids 35 to 95 of SEQ ID NO:2 (SEQ ID NO:18) (protein, listed as Homo sapiens)
chain: EPAGSAVPAQSRPCVDCHAFEFMQRALQDLRKTACSLDARTETLLLQAERRALCACWPAGH
modifications: not fully specified
In the case of B2, the “activity in the presence of 5HT” value with strips of ileum was “a secondary contraction is observed”.
